Measurements: patent US20260092093A1 (TJ BIOPHARMA SHANGHAI, published 2026)

T1: hIL-18BP-hFc (human, UniProt O95998 31-194, limits assumed)
T1 sequence (looked up): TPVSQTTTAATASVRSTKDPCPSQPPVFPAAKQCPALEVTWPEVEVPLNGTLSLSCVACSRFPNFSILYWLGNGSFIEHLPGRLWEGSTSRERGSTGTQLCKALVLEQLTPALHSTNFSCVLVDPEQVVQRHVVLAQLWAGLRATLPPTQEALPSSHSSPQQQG

T2: hIL-18 receptor (hIL-18Rα and hIL-18Rβ) (human, UniProt Q13478 19-541; O95256 20-599)
T2 sequence (looked up) 1: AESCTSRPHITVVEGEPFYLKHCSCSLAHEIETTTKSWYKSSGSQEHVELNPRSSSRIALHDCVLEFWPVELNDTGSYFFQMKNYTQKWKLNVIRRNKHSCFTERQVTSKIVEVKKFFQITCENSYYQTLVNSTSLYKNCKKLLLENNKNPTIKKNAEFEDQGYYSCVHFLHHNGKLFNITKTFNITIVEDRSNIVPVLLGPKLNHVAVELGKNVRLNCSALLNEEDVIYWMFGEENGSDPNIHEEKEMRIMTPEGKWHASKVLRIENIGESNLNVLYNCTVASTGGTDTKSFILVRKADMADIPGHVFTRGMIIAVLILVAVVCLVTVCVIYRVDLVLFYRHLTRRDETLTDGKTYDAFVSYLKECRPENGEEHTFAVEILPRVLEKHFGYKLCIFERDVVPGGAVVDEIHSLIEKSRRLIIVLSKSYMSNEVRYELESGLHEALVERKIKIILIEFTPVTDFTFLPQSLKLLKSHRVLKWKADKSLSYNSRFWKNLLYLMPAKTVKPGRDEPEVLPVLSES
T2 sequence (looked up) 2: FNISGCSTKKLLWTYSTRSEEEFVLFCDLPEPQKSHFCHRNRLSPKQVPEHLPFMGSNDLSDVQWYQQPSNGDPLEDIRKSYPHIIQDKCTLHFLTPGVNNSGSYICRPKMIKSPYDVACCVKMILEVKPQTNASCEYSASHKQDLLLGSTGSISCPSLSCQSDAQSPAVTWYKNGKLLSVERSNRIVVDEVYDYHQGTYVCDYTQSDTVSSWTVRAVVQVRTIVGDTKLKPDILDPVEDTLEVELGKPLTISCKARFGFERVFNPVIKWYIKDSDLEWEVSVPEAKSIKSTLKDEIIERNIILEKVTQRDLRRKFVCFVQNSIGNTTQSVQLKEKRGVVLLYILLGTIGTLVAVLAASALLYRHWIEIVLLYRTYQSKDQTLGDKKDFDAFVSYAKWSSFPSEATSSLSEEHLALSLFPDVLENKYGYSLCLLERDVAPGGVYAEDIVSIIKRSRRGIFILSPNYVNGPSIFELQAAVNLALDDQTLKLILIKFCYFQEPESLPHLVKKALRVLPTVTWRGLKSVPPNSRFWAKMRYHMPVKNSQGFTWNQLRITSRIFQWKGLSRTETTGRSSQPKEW


Assays:
hIL-18BP-hFc = biological target: T1, hIL-18BP-hFc; experiment: cell-based or functional assay
[1] = biological target: T2, hIL-18 receptor (hIL-18Rα and hIL-18Rβ); experiment: cell-based or functional assay

Binder | EC50 (nM) in the Presence of 1 µg/mL hIL-18BP-hFc, hIL-18 reporter assay (hIL-18BP-hFc) [nM] | EC50 Fold Change (+BP/-BP), hIL-18 reporter assay (hIL-18BP-hFc) [fold] | EC50 (nM), hIL-18 reporter assay [1] [nM]
IL-18 variant polypeptide LM2 (ligand) YFPKLRSKLSVIRNLNDQVLFIDQGNRPLFEDMTDSDCRDNAPRTIFIISMYKLSGSRGMAVTISVKCEKISTLSCENKIISFKEMNPPDVIKDTKSDIIFFQRSVPGHDNKMQFESSSYEGYFLACEKERDLFKLILKKEDELGDRSIMFTVQNED | 0.055 | 0.5 | 0.11
IL-18 variant polypeptide M5 (ligand) YFEKLTSKLSVIRNLNDQVLFIDQGNRPLFEDMTDSDCRDNAPRTIFIISMYKWSPWRGMAVTISVKCEKISTLSCENKIISFKEMNPPDVIKDTKSDIIFFQTSVPGHDNKMQFESSSYEGYFLACEKERDLFKLILKKEDELGDRSIMFTVQKED | 0.21 | 0.95 | 0.22
IL-18 variant polypeptide MM4 (ligand) YFPKLRSKLSVIRNLNDQVLFIDQGNRPLFEDMTDSDCRDNAPRTIFIISMYKLSTIRGMAVTISVKCEKISTLSCENKIISFKEMNPPDGIKDTKSDIIFFQRSVPGHDNKMQFESSSYEGYFLACEKERDLFKLILKKEDELGDRSIMFTVQNED | 0.43 | 3.31 | 0.13
IL-18 variant polypeptide MM2 (ligand) YFAKLYSKLSVIRNLNDQVLFIDQGNRPLFEDMTDSDCRDNAPRTIFIISMYKRSSLRGMAVTISVKCEKISTLSCENKIISFKEMNPPDGIKDTKSDIIFFQRSVPGHDNKMQFESSSYEGYFLACEKERDLFKLILKKEDELGDRSIMFTVQNED | 2.24 | 2.41 | 0.93
IL-18 variant polypeptide LM5 (ligand) YFGKLRSKLSVIRNLNDQVLFIDQGNRPLFEDMTDSDCRDNAPRTIFIISMYKWSSQRGMAVTISVKCEKISTLSCENKIISFKEMNPPDNIKDTKSDIIFFQRSVPGHDNKMQFESSSYEGYFLACEKERDLFKLILKKEDELGDRSIMFTVQNED | 0.12 | 0.92 | 0.13
IL-18 variant polypeptide M1 (ligand) YFPKLKSKLSVIRNLNDQVLFIDQGNRPLFEDMTDSDCRDNAPRTIFIISMYKHSDRRGMAVTISVKCEKISTLSCENKIISFKEMNPPDVIKDTKSDIIFFQVSVPGHDNKMQFESSSYEGYFLACEKERDLFKLILKKEDELGDRSIMFTVQNED | 3.45 | 2.38 | 1.45
IL-18 variant polypeptide M4 (ligand) YFPKLKSKLSVIRNLNDQVLFIDQGNRPLFEDMTDSDCRDNAPRTIFIISMYKWSGVRGMAVTISVKCEKISTLSCENKIISFKEMNPPDVIKDTKSDIIFFQFSVPGHDNKMQFESSSYEGYFLACEKERDLFKLILKKEDELGDRSIMFTVQNED | 0.025 | 1.39 | 0.018
IL-18 variant polypeptide LM3 (ligand) YFPKLRSKLSIIRNLNDQVLFIDQGNRPLFEDMTDSDCRDNAPRTIFIISMYKGSGARGMAVTISVKCEKISTLSCENKIISFKEMNPPDGIKDTKSDIIFFQRSVPGHDNKMQFESSSYEGYFLACEKERDLFKLILKKEDELGDRSIMFTVQNED | 0.069 | 1.33 | 0.052
IL-18 variant polypeptide M9 (ligand) YFPKLRSKLSVIRNLNDQVLFIDQGNRPLFEDMTDSDCRDNAPRTIFIISMYKWSRARGMAVTISVKCEKISTLSCENKIISFKEMNPPDSIKDTKSDIIFFQSSVPGHDNKMQFESSSYEGYFLACEKERDLFKLILKKEDELGDRSIMFTVQNED | 0.33 | 0.77 | 0.43
IL-18 variant polypeptide M2 (ligand) YFSKLKSKLSVIRNLNDQVLFIDQGNRPLFEDMTDSDCRDNAPRTIFIISMYKWSPDRGMAVTISVKCEKISTLSCENKIISFKEMNPPDGIKDTKSDIIFFQTSVPGHDNKMQFESSSYEGYFLACEKERDLFKLILKKEDELGDRSIMFTVQNED | 0.19 | 0.7 | 0.27
IL-18 variant polypeptide MM6 (ligand) YFAKLYSKLSVIRNLNDQVLFIDQGNRPLFEDMTDSDCRDNAPRTIFIISMYKRSSLRGMAVTISVKCEKISTLSCENKIISFKEMNPPDAIKDTKSDIIFFQRSVPGHDNKMQFESSSYEGYFLACEKERDLFKLILKKEDELGDRSIMFTVQNED | 1.5 | 1.5 | 1
IL-18 variant polypeptide LM4 (ligand) YFPKLKSKLSVIRNLNDQVLFIDQGNRPLFEDMTDSDCRDNAPRTIFIISMYKHSYSRGMAVTISVKCEKISTLSCENKIISFKEMNPPDNIKDTKSDIIFFQRSVPGHDNKMQFESSSYEGYFLACEKERDLFKLILKKEDELGDRSIMFTVQNED | 0.17 | 1.06 | 0.16
IL-18 variant polypeptide MM1 (ligand) YFPKLKSKLSVIRNLNDQVLFIDQGNRPLFEDMTDSDCRDNAPRTIFIISMYKLSTQRGMAVTISVKCEKISTLSCENKIISFKEMNPPDVIKDTKSDIIFFQRSVPGHDNKMQFESSSYEGYFLACEKERDLFKLILKKEDELGDRSIMFTVQNED | 0.81 | 0.84 | 0.97
IL-18 variant polypeptide M6 (ligand) YFPKLRSKLSVIRNLNDQVLFIDQGNRPLFEDMTDSDCRDNAPRTIFIISMYKWSTPRGMAVTISVKCEKISTLSCENKIISFKEMNPPDVIKDTKSDIIFFQTSVPGHDNKMQFESSSYEGYFLACEKERDLFKLILKKEDELGDRSIMFTVQNED | 0.14 | 0.78 | 0.18
IL-18 variant polypeptide M10 (ligand) YFPKLRSKLSVIRNLNDQVLFIDQGNRPLFEDMTDSDCRDNAPRTIFIISMYKQSLWRGMAVTISVKCEKISTLSCENKIISFKEMNPPDSIKDTKSDIIFFQRSVPGHDNKMQFESSSYEGYFLACEKERDLFKLILKKEDELGDRSIMFTVQNED | 0.17 | 0.59 | 0.29
IL-18 variant polypeptide WM2 (ligand) YFPKLRSKLSVIRNLNDQVLFIDQGNRPLFEDMTDSDCRDNAPRTIFIISMYKDSQPRGMAVTISVKCEKISTLSCENKIISFKEMNPPDNIKDTESDIIFFQRSVPGHDNKMQFESSSYEGYFLACEKERDLFKLILKKEDELGDRSIMFTVQNED | 14.2 | 1.32 | 10.7
IL-18 variant polypeptide M7 (ligand) YFPKLRSKLSVIRNLNDQVLFIDQGNRPLFEDMTDSDCRDNAPRTIFIISMYKHSTARGMAVTISVKCEKISTLSCENKIISFKEMNPPDAIKDTKSDIIFFQRSVPGHDNKMQFESSSYEGYFLACEKERDLFKLILKKEDELGDRSIMFTVQNED | 0.25 | 1.67 | 0.15
IL-18 variant polypeptide M3 (ligand) YFPKLKSKLSVIRNLNDQVLFIDQGNRPLFEDMTDSDCRDNAPRTIFIISMYKWSHVRGMAVTISVKCEKISTLSCENKIISFKEMNPPDAIKDTKSDIIFFQYSVPGHDNKMQFESSSYEGYFLACEKERDLFKLILKKEDELGDRSIMFTVQNED | 0.37 | 1.54 | 0.24
